Holding throughout (test): BLI
For orientation: BLI is a label-free optical method that tracks binding on a fibre tip over time.

Assay [1] has as its target M15 single reverted mutant G51A (light chain residue 51 reverted to the germline residue) (human).
The target of assay [2] is M15 triple mutant with all three light chain mutations (S32I, G51A, T57I) reverted to germline (human).
In assay [3] the target is M15 single reverted mutant S32I (light chain residue 32 reverted to the germline residue) (human).
Assay [4] deals with M15 single reverted mutant T57I (light chain residue 57 reverted to the germline residue) (human).

Turning to “SARS-CoV-2 WA1/2020 S2 protein (stabilized prefusion SARS-CoV-2 spike S2 trimer) (from UniProt P0DTC2) (domain or fragment)”, the fold decrease in binding affinity compared to M15 is 1.88 fold in assay [1], 12 fold in assay [2], 1.45 fold in assay [3] and 1.02 fold in assay [4].

For the origin of these results see publication PMC11952319.
